Measured values taken from US20150299277A1, “AGENT FOR TREATING OR PREVENTING SYSTEMIC INFLAMMATORY RESPONSE SYNDROME” (THE UNIVERSITY OF TOKYO, priority 2012, published 2015).
“Also recorded” adds a separate entry of the source. Ends that are not written are not given here.

Key:
[1] = test system: Calf Thymus Histones on HUVEC; assay: Cytotoxic assay: suppression of histone cytotoxicity on HUVEC; format: cell-based, human
Description: After culturing for 1 hr in a medium concurrently containing 100 μg/mL Calf Thymus Histones and APC (200 nM), PTX3 (40 μg/mL), CRP (40 μg/mL) or SAP (40 μg/mL), the level of toxic activity was measured by FACS.
(§1) Normal human umbilical vein endothelial cells (HUVECs) were cultured in EGM2 medium (Clonetics). The cells after culture were washed with PBS, added with Opti-MEM medium containing an product of incubation of activated protein C (APC), PTX3, C reactive protein (CRP) or Serum amyloid P component (SAP) with histone for 1 hr, and the cells were further cultured for 1 hr. Propidium iodide (PI) was added to the medium after culture at a final concentration of 10 μg/mL, and the cells were stained for 10 min. The cells were washed with PBS, detached and analyzed by flow cytometry.
The histone cytotoxicity on HUVEC was evaluated by propidium iodide (PI) staining.
Lastly, capacity of suppressing the cytotoxic activity of histone was confirmed. Since this experiment requires a certain amount of protein and an endotoxin-elimination as treatment, a protein was expressed and purified at a 500 mL culture scale, and subjected to an endotoxin-elimination treatment (FIG. 18). In the case of PTX3 N-terminal domain, about 10 mg was obtained at a 500 mL culture scale, and a loss by the endotoxin-elimination treatment was scarcely observed. […] A capacity of fragment proteins obtained at a 500 mL scale on HUVEC to suppress histone cytotoxicity was studied. […] In consideration of the experiments relating to the binding and aggregation, all fragments were considered to possibly have a certain level of suppressive capacity.

histone H4 on HUVEC = assay: as above; format: cell-based, human
Description: as §1
Using each recombinant histone instead of Calf Thymus Histones, a suppressive effect of full-length PTX3 or the N-terminal domain of PTX3 on histone cytotoxicity was studied in the same manner.
Lastly, capacity of suppressing the cytotoxic activity of histone was confirmed. Since this experiment requires a certain amount of protein and an endotoxin-elimination as treatment, a protein was expressed and purified at a 500 mL culture scale, and subjected to an endotoxin-elimination treatment (FIG. 18). In the case of PTX3 N-terminal domain, about 10 mg was obtained at a 500 mL culture scale, and a loss by the endotoxin-elimination treatment was scarcely observed. […] A capacity of fragment proteins obtained at a 500 mL scale on HUVEC to suppress histone cytotoxicity was studied. […]

Calf Thymus Histones = assay: Aggregation with histone, absorbance at 310 nm; format: binding; conditions: mixture with Calf Thymus Histones
Description: The lower left figure and the lower right figure show the measurement results of absorbance at 310 nm of a mixture of a wild-type or oligomer formation capacity-deficient mutant of PTX3 N-terminal domain having each concentration and 0.1 mg/mL Calf Thymus Histones at 1:1 vol.
The aggregation activity of PTX3 and other pentraxins to histone was evaluated. Calf Thymus Histones (50 μg/mL) were mixed with a PTX3 fragment or the other pentraxin at each concentration, and the absorbance at the wavelength of 310 nm was measured. Before mixing, samples were dialyzed against 4 mM CaCl2-containing TBS.

Substance | capacity to suppress cytotoxicity of bovine thymus-derived histone on HUVEC [1] | capacity to suppress cytotoxicity of recombinant histone H4 on HUVEC (histone H4 on HUVEC) | aggregation with Calf Thymus Histones, absorbance at 310 nm (Calf Thymus Histones) | suppression of toxic activity of Calf Thymus Histones on HUVEC ([1]; 100 μg/mL Calf Thymus Histones, 40 μg/mL protein, 1 hr, PI staining, FACS)
PTXN18: E. coli-expressed fragment of about 50 amino acids of PTX3 N-terminal domain with His-tag and TEV sequence, probably amino acids 18-67 (ENLYFQGENSDDYDLMYVNLDNEIDNGLHPTEDPTPCDCGQEHSEWDKLFIMLENSQ; not fully specified; cysteine pairing not given here) | almost equivalent to that of the PTX3 N-terminal domain | almost equivalent to that of the PTX3 N-terminal domain |  | 
SAP: Serum amyloid P component, short pentraxin used as comparator [reference compound] |  |  | no aggregation capacity; also recorded: scarcely showed an aggregation activity | do not have such suppressive effect
